Assays:
human C1s (human) [1] = molecular target: human C1s (human)
human C1s (human) [2] = molecular target: human C1s (human); remark: listed apart in the source

Sequence of recombinant human C1 esterase inhibitor (rhC1INH) from Chinese hamster ovary (CHO) cells (P05155 23-500): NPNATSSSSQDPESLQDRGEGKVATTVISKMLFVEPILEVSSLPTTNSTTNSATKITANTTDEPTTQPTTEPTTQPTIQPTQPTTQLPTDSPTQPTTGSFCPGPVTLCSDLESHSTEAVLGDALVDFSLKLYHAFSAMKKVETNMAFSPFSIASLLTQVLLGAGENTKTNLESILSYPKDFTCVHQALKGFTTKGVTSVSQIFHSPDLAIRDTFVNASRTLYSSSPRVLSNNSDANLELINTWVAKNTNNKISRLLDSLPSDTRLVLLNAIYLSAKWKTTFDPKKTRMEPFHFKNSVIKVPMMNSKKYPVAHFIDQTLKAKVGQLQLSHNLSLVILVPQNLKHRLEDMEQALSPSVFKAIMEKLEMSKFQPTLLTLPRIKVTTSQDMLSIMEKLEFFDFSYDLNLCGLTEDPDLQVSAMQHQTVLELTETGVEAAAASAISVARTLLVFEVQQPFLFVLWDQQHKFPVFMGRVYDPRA

Substance: recombinant human C1 esterase inhibitor (rhC1INH) from Chinese hamster ovary (CHO) cells (from UniProt P05155 23-500) (natural protein)
- Biological Activity, U/mL: inhibition of the C1s subunit, chromogenic method (TECHNOCHROM C1-INH Kit) (human C1s (human) [1]): 175 U/mL
- Specific Activity, U/mg: inhibition of the C1s subunit, chromogenic method (TECHNOCHROM C1-INH Kit) (human C1s (human) [1]): 9.5 U/mg
- IC50 of the inhibition of human serum complement (lysis of chicken erythrocytes), rhC1INH 0.0099 to 20.25 IU/mL; printed as activity against human C1-esterase in the blood serum (human C1s (human) [2]): 1.85 IU/mL
